Tests used:
[1] = molecular target: T1, HA-GPR49 (full-length human GPR49 with an HA-tag inserted at the N-terminus) (human, UniProt O75473 22-907); test: flow cytometry, hybridoma supernatant on 2B10 cells against parental DG44
T1 construct: Expressed in DG44 cells (line 2B10) and, inducibly with doxycycline, in 293FlpIn T-Rex cells (lines B2, B4); On whole cells in flow cytometry and cytotoxicity assays; as cell lysate in Western blotting and immunoprecipitation; also called human GPR49/DG44 cells (2B10); HA-GPR49-expressing DG44 cell line 2B10; not shown: HA-tag inserted at the N-terminus of GPR49
T1 sequence: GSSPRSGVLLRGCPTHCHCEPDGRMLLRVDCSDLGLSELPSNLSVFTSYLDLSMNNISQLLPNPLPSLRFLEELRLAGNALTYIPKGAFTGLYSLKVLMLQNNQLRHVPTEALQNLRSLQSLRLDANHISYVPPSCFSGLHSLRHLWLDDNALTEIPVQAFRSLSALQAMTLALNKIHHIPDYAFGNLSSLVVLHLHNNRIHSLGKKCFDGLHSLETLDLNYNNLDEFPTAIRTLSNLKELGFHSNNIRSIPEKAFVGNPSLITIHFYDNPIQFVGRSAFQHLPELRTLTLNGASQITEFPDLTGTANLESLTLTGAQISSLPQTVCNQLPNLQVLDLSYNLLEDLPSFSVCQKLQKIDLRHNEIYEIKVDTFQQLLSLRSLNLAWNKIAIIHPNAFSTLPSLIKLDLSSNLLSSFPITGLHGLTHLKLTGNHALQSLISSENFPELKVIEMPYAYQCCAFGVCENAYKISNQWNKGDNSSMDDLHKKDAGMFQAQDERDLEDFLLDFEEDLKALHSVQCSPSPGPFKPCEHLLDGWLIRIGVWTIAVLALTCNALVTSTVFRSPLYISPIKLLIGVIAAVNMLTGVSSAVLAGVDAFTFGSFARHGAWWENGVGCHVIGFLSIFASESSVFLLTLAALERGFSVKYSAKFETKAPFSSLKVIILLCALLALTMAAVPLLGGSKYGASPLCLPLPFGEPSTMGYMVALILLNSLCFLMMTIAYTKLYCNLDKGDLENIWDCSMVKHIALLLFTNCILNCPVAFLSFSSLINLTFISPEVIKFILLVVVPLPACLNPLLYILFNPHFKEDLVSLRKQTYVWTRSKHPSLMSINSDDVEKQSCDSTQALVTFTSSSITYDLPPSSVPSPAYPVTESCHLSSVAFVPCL
Description: The binding to the human GPR49/DG44 cells (2B 10) was evaluated by flow cytometry using the obtained hybridomas. The cell lines expressing human GPR49 suspended in FACS buffer (2% FBS/PBS/0.05% NaN₃) were diluted to 1×10⁶ cells/mL with FACS buffer, and then aliquoted at 50 μL/well into a Falcon 353910 round-bottom 96-well plate. Hybridoma culture supernatant diluted to a suitable concentration was added to the wells containing the cells and reacted for 60 minutes on ice. Then, the cells were washed once with FACS buffer. Goat F(ab′)₂ fragment anti-mouse IgG(H+ L)-FITC (Beckman Coulter) was added to the wells containing the cells as a secondary antibody, and reacted for 30 minutes on ice. After reaction, the supernatant was removed by centrifugation, and then the cells suspended in 100 μL of FACS buffer were subjected to flow cytometry. A FACS Calibur (Becton Dickinson) was used for flow cytometry. The viable cell population was gated with a forward scatter-side scatter dot blot, an FL1 histogram was made of the cells contained in the population, and binding activity thereof was evaluated.
When the hybridoma supernatants were reacted with 2B 10 in which GPR49 is induced and expressed in DG44 cells and with the parental cell line DG44 respectively, hybridomas that specifically reacted with GPR49-expressing cells were obtained. The hybridomas from these wells were made into single clones by the limiting dilution method. The isotype of each antibody was analyzed using an IsoStrip™ mouse monoclonal antibody isotyping kit (Roche Diagnostics). As a result, 2J18-1N and 2J18-3 were IgM, and 2L7-8, 2L9-3, 2L10-19, 2L13-3, 2L15-12, 2L16-15, 2L18-15, 2L33-6, 2L34-5, 2L36-12, 2T4E-6, 2T9E1#14, 2T15E-2, 2T42E-4, 2T54-2, 2T65-3, 2T37-16, 2U1E-1, 2U2E-2, and 2U4E-11 were IgG1. Culturing of the hybridomas made into single clones was scaled up, and then the antibodies were purified from the culture supernatant using a protein G column in accordance with the manual. The IgM antibodies were purified using a protein L column in accordance with the manual. The purified antibodies were quantified by DC Protein Assay or such.

human GPR49 protein [2] = molecular target: T2, human GPR49 protein (human, UniProt O75473 22-907); test: flow cytometry, 10 ug/mL antibody on OVSAHO, Alexander and NUGC-4 cells
T2 construct: also called LGR5; GPR49 molecule
T2 sequence: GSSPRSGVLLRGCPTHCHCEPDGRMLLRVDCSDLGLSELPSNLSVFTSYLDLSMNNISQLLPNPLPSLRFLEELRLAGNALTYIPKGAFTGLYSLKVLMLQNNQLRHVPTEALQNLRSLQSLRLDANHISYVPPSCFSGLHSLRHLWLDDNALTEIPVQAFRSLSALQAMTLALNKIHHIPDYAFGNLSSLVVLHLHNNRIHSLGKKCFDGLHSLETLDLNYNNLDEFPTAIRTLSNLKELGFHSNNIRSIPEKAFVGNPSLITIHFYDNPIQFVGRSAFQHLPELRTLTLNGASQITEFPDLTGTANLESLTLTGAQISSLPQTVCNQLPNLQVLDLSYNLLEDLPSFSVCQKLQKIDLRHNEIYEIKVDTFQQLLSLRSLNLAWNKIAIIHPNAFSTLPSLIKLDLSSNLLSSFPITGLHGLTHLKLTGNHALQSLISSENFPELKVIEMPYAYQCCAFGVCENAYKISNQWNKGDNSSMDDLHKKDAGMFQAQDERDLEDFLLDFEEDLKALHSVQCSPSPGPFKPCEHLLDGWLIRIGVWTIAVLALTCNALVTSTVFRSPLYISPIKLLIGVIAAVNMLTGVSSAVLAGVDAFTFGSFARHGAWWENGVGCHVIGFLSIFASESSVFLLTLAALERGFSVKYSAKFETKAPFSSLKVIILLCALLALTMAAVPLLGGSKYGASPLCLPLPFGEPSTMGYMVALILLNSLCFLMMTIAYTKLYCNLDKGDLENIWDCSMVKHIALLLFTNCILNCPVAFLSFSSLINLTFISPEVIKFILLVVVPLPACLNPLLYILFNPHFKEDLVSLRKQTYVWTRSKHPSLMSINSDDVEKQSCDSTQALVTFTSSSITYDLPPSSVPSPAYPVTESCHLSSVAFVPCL
Description: The reactivity of 2T15E-2 antibody to human cancer cell lines were analyzed by flow cytometry. Human cancer cell lines suspended in a FACS buffer (2% FBS/PBS/0.05% NaN₃) were diluted to 1×10⁶ cells/mL with the FACS buffer, and the solutions were then dispensed into a Falcon 353910 round-bottom 96-well plate at 50 μL/well. 2T15E-2 antibody diluted to a concentration of 10 μg/mL was added, and this was reacted for 60 minutes on ice. Next, the cells were washed once with the FACS buffer. After adding Goat F(ab′)₂ fragment anti-mouse IgG (Fcγ)-FITC (Beckman Coulter) as a secondary antibody to the wells containing the cells, this was reacted for 30 minutes on ice. After the reaction, the supernatant was removed by centrifugation, and then the cells were suspended in 100 μL of FACS buffer containing propidium iodide (PI) and then subjected to flow cytometry. A FACS Calibur (Becton Dickinson) was used for the flow cytometry. The viable cell population was gated with a forward scatter-side scatter dot blot, an FL1 histogram was made of the cells contained in the population, and binding activity thereof was evaluated.
The peaks indicated with a solid line indicate the reactivity with cancer cell lines, and the shaded regions represent the peaks obtained when the reactions are carried out without antibodies. […]

mouse GPR49 = molecular target: T3, mouse GPR49 (mouse, UniProt Q9Z1P4 22-907, limits assumed); test: Western blotting
T3 construct: Expressed transiently in 293T cells; the cell lysate was analysed by Western blotting; also called mouse (M) GPR49
T3 sequence (looked up): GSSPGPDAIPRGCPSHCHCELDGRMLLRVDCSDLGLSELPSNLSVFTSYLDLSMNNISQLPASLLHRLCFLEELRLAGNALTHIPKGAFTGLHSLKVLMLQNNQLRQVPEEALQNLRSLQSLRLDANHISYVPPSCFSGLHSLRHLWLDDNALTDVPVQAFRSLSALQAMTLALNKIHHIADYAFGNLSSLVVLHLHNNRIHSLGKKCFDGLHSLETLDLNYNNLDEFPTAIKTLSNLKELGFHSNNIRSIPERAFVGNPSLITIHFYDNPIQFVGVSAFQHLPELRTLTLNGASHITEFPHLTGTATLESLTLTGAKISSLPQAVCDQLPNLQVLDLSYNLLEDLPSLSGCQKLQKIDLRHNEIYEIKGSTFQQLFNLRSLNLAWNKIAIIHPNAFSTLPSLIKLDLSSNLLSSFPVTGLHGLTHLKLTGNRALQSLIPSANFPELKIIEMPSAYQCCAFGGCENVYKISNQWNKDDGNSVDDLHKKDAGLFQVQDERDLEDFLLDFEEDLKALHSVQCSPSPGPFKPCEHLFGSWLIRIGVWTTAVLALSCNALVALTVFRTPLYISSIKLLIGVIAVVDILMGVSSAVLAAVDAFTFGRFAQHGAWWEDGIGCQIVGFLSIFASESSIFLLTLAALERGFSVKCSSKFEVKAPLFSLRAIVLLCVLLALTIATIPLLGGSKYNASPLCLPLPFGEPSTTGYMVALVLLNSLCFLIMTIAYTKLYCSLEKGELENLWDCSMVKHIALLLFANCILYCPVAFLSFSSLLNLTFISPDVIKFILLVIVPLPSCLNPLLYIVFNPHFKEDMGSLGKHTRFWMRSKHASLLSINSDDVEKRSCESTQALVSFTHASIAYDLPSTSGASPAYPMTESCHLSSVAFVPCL

human GPR49 protein [3] = molecular target: T2, human GPR49 protein; test: Western blotting of LoVo cell lysate
[4] = molecular target: T1, HA-GPR49 (full-length human GPR49 with …); test: immunoprecipitation from 2B10 cell lysate, Western blot detection
Description: To confirm the presence of the 40-kDa and 60-kDa protein bands detected in Western blotting, immunoprecipitation experiments were carried out using GPR49 monoclonal antibodies. Cell lysate prepared by solubilizing HA-GPR49-expressing DG44 cell line 2B10 in NP40 lysis buffer (0.5% NP40, 50 mM Tris-HCl (pH7.5), 150 mM NaCl, protease inhibitor complete mini (Roche)) was used as the sample for immunoprecipitation. The amount of protein included in the cell lysate was quantified by DC Protein Assay using BSA as a standard. A solution containing 2 μg of antibody was added to 500 μL of cell lysate containing 100 μg of protein, and this was reacted at 4° C. for one hour. Additionally, 20 μL of Protein A/G Plus agarose (Santa Cruz) was added and this was reacted overnight. Agarose beads were centrifugated at 1,000×g for one minute, washed twice with 1 mL of PBS, and then antigens bound to the antibodies were eluted by adding 50 μL of 2×SDS-sample buffer and warming at 60° C. for 30 minutes. After centrifuging at 1,000×g for one minutes, 15 μL of the supernatant obtained was subjected to SDS-PAGE. […] As is seen in the lanes for the samples immunoprecipitated using 2L13-3 and 2L36-12, a 40-kDa band and a 60-kDa band in addition to the 100-kDa band could surely be detected using 2U1E-1 and 2U2E-2, respectively. […]

B1: anti-GPR49 monoclonal antibody 2L36-12 (antibody, mouse IgG1, V domains shown)
VH: QVQLQQSGAELVRPGTSVKVSCKASGYDFTNYLIEWVNQRPGQGLEWIGVINPGSGGTNYNEKFKGKATLTADKSSSTAYMQLSSLTSDDSAVYLCARYSPYGNYFDYWGQGTTLTVSS
VL: DIVMTQSHKFMSTSVGDRVSITCRASQDVGTAVAWYQQKPGQSPKLLIYWASTRHTGVPDRFTGSGSGTDFTLTINNVQSEDLADYFCQQYSSYPPTFGGGTKLEIK
notes: Mouse IgG1 from hybridoma; light chain amplified with a kappa primer
binding result [1]: binds

B2: anti-GPR49 monoclonal antibody 2T15E-2 (antibody, mouse IgG1, V domains shown)
VH: EVQLVESGGGLVKPGGSLKISCAASGFTSSNYAMSWVRQTPEKRLEWVATISSGGGYTYYPDSEKGRFAISRDNAKNTLYLQMSGLRSEDTAMYYCATQLYYRSHYYSMDYWGQGSSVTVSS
VL: QIVLTQSPAIMSASPGEKVTMTCSASSSISYMHWYQQKSGTSPKRWIYDTSKLASGVPARFSGSGSGTSYSLTISSMEAEDAATYYCQQWHSKPATFGAGTKLELK
notes: as for B1
binding result (human GPR49 protein [2]): binds
binding result [1]: binds

B3: anti-GPR49 monoclonal antibody 2J18-1N (antibody, mouse IgM, V domains shown)
VH: EVQLQQSGPELVKPGDSVKMSCKASGYTFTDYYMDWVKQSHGKSLEWIGYIYPNNGGTSYNQKFKGKATLTVDKSSSTAYMELHSLTSEDSAVYYCARPYYSNSFAYWGQGTLVTVSA
VL: QIVLTQSPAIMSASPGEKVTMTCRASSSVSSSYLHWYQQKPGSSPKLWIYSTSNLASGVPARFSGSGSGTSYSLTISSVEAEDAATYYCQQYDSSPFTFGTGTKLEIK
notes: Mouse IgM from hybridoma; light chain amplified with a kappa primer
binding result [1]: binds

B4: anti-GPR49 monoclonal antibody 2U1E-1 (antibody, mouse IgG1, V domains shown)
VH: QVQLQQPGAELVEPGASVKLSCKASGYTFTNYYMYWVKQRPGQGLEWIGGINPNNGGTNFNEKFKSKATLTVDKSSSTAYMQLSSLTSEDSAVYYCTGIYYRYNWHFGVWGAGTTVTVSS
VL: DVLMTQTPLSLPVSLGDQASISCRSSQTIVHSNGNTYLEWYLQKPGQSPKLLIYKVSNRFSGVPDRFSGSGSGTDFTLKIYRVEAEDLGIYYCFQGSHVPWTFGGGTKLEIK
notes: as for B1
binding result (mouse GPR49): binds
binding result [1]: binds
binding result (human GPR49 protein [3]): binds

B5: anti-GPR49 monoclonal antibody 2U2E-2 (antibody, mouse IgG1, V domains shown)
VH: EVKLVESGGDLVKPGGSLKLSCAASGFIFSTYAMSWVRQIPEKRLEWVASISPDGNTFYPDSLKGRFTISRDNVRNILYLQMSSLRSEDTAMYYCAVTGTFAYWGQGTLVTVSG
VL: DVLMTQTPLSLPVSLGDQASISCRSSQNILHSDGNTYLEWFLQKPGQSPKLLIFKISNRFPGVPDRFSGSGSGTDFTLKISRVEAEDLGVYYCFQSSHVPYTFGGGTKLEIK
notes: as for B1
binding result (mouse GPR49): binds
binding result [1]: binds
binding result (human GPR49 protein [3]): binds

B6: anti-GPR49 monoclonal antibody 2L13-3 (antibody, mouse IgG1, V domains shown)
VH: QVQLQQSGAELVRPGTSVKMSCKAAGYTFTNSWIGWVKQRPGHGLEWIGDIYPGGDYTNYNEKFKGKATLTADTSSSTAYMQLSSLTSEDAAIYYCTRGDGYFDYWGQGTTLTVSS
VL: DIVMTQSHKFMSTSVGDRVSITCKASQDVSIDVAWYQQRPGQSPKLLIYSASYRYTGVPDRFTGSGSGTDFTFTVSSVQAEDLAVYYCQQHYSTPPTFGGGTKLEIK
notes: as for B1
binding result [4]: binds
